Common to all, as to test: EMSA; 0.5 mM αKG, 10 mM Mg2+, 2 mM ascorbate; EMSA: 50 mM Tris-HCl pH 8.0, 50 mM KCl, 10 mM MgCl2, 0.5 mM αKG, 2 mM Na ascorbate; 1.2 µM DNA, 0.4-12.8 µM protein; 10 min 37 °C then 5 min on ice; 10% native
Holding throughout (details): protein: recombinant; tags: N-terminal His6; label: 5'-FAM on strand 1; blunt
A general note: A gel shift assay detects complexes by their altered migration in electrophoresis.

For one data set, the target named is T1, ABH2 Y122A (human, UniProt Q6NS38 1-261, Y122A).
T1 sequence: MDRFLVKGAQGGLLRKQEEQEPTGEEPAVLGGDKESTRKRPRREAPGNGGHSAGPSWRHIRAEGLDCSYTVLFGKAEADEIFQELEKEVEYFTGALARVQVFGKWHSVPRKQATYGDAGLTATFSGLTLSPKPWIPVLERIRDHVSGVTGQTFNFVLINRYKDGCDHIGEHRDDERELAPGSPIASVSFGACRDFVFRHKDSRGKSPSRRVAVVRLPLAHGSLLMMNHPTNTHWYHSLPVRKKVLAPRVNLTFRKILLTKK

The next data set addresses T2, ABH2 I168A (human, UniProt Q6NS38 1-261, I168A).
T2 sequence: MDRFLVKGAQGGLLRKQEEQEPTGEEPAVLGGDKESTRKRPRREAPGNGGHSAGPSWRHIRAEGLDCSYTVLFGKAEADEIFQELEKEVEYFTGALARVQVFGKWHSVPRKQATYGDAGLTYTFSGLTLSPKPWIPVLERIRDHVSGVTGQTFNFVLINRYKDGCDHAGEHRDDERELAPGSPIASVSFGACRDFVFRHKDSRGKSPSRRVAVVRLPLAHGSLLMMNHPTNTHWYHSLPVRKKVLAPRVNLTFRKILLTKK

Another data set has as its target T3, ABH2 D173A (human, UniProt Q6NS38 1-261, D173A).
T3 sequence: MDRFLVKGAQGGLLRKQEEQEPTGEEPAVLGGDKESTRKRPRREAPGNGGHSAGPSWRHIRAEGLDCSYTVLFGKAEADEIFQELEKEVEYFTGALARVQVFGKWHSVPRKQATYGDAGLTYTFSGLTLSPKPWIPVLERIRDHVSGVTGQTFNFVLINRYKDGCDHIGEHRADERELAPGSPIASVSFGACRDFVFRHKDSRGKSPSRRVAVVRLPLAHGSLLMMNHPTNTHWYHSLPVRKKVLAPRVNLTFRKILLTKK

For orientation: Kd means a measure of binding affinity in units of concentration.

B1: m3C (dsDNA)
DNA 1: AGTTCAATGATCTTCAT
DNA 2: ATGAAGATCATTGAACT
modifications: N3-methylcytosine at position 12 of strand 1
Take B1: the dissociation constant Kd amounted to 2490 ± 60 nM in the data set with ABH2 Y122A, 4.1 ± 0.1 µM in the data set with ABH2 I168A and 3090 ± 70 nM with ABH2 D173A.

B2: m1A (dsDNA)
DNA 1: AGTTCAATGATCTTCAT
DNA 2: ATGAAGATCATTGAACT
modifications: N1-methyladenine at position 10 of strand 1
On to B2, for which the Kd came out at 2110 ± 80 nM with ABH2 Y122A, 2.7 ± 0.4 µM with ABH2 I168A and 2100 ± 90 nM with ABH2 D173A.

The values are drawn from paper PMC10377887, “Individual Contributions of Amido Acid Residues Tyr122, Ile168, and Asp173 to the Activity and Substrate Specificity of Human DNA Dioxygenase ABH2”.
